The values that follow come from patent US20250101076A1.

In the experiment the target is extracellular domain of the growth hormone receptor (human) (UniProt P10912). Briefly: competition ELISA, plate coated with GHR extracellular domain, inhibition of biotin-hGH binding. A general note: In an ELISA, binding on a coated surface is turned into a signal by an enzyme label.
Sequence of UniProt P10912 (P10912 19-264): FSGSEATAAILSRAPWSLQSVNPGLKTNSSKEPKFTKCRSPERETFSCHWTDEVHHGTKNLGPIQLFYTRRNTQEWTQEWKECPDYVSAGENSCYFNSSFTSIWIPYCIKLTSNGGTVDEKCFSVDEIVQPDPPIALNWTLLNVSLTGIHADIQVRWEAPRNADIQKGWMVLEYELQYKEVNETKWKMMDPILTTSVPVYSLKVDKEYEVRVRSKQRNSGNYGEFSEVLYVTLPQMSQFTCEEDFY

The IC50 is the concentration needed to halve the response being measured. Read a high IC50 as lower potency. Take pegvisomant (ligand): the IC50 is 0.137 µM.
